Like-named read-outs stand apart in the source and are kept apart here.
Assays:
[1] = biological target: T1, Hpy188I restriction endonuclease (native Met) (UniProt Q9KJ88 1-170); experiment: co-crystallization
T1 sequence: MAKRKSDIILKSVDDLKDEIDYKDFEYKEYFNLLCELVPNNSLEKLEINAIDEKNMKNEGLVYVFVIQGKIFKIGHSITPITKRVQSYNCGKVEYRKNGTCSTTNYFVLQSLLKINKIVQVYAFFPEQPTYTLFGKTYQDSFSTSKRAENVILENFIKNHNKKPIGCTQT

[2] = biological target: T2, Hpy188I restriction endonuclease (selenomethionine variant) (UniProt Q9KJ88 1-170); experiment: X-ray crystallography
T2 sequence: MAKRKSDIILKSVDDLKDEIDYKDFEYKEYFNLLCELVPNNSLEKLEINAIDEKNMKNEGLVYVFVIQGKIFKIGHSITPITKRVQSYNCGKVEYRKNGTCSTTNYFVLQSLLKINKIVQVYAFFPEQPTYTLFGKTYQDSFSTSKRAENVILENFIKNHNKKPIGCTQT

[3] = biological target: T2, Hpy188I restriction endonuclease …; experiment: X-ray crystallography; remark: listed apart in the source

Binder	binding result [1]	binding result [2]	binding result [3]
9-mer target oligoduplex (uncleaved) (dsDNA) DNA 1: GATCTGAAC DNA 2: GTTCAGATC	binds	binds	–
9-mer target oligoduplex cleaved in crystal at TCN|GA (product) (dsDNA) DNA 1: GATCT DNA 2: GAAC DNA 3: GTTCA DNA 4: GATC	–	–	binds

Reference: paper PMC3045582
